From US20260098089A1 come the findings set out here.

Bounds are passed on as bounds.

The Kd is the equilibrium constant for the complex coming apart. Broadly, the koff is the rate constant with which the complex falls apart. As usually defined, the kon is a measure of how fast the partners come together.

The target of test [1] is Cynomolgus monkey (Macaca fascicularis) CD7 protein (soluble) (cynomolgus monkey (Macaca fascicularis)). The test is described as follows: SPR, captured mAb, global fit 1:1 model.
The target in test [2] is Human CD7 protein (soluble) (human) (UniProt P09564). The test is described as follows: SPR, captured mAb, global fit 1:1 model.
Test [3] has as its target Human CD7 on cells (CEM and other T-ALL cells, peripheral NK and T cells) (human) (UniProt P09564). The test is described as follows: cell-based or functional assay.

Sequence of Human CD7 on cells (CEM and other T-ALL cells, peripheral NK and T cells) (human) (P09564 26-238 limits assumed): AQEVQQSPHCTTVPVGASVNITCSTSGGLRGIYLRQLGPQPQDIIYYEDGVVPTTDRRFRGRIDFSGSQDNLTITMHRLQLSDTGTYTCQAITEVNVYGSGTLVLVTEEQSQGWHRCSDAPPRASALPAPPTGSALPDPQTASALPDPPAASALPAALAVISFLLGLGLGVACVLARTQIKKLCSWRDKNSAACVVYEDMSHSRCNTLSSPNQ
Sequence of Human CD7 protein (soluble) (human) (P09564 26-180 limits assumed): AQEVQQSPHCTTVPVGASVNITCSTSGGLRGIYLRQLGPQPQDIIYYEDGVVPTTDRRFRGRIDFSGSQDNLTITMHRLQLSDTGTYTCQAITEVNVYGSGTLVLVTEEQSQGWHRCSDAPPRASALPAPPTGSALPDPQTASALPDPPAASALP
Sequence of Cynomolgus monkey (Macaca fascicularis) CD7 protein (soluble) (cynomolgus monkey (Macaca fascicularis)) (chain, as listed by the source limits assumed): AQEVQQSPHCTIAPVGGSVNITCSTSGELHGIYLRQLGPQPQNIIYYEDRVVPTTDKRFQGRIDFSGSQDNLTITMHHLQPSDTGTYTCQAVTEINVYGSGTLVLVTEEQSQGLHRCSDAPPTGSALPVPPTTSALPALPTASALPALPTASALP

In test [1], RFT2 IgG1 (antibody) returned a Kd of 50.8 nM, a koff of 0.0254 s⁻¹ and an on-rate (kon) of 529000 M⁻¹ s⁻¹. In test [2], this substance registered a Kd of 6.22 nM, a koff of 0.0037 s⁻¹ and a kon of 611000 M⁻¹ s⁻¹.
In test [3], RFT2 IgG1 E345R (antibody) gave a CDC assay on CEM cells, EC50 (FIG. 1) of less than 1 nM; a CDC assay on CEM cells, maximum killing (FIG. 1) of 100%; an EC50, CDC assay on CEM cells of 0.22 nM; a Maximum killing, CDC assay on CEM cells of 98.5%.
In test [2], TH69 (antibody) came in with a Kd of 0.279 nM, a koff of 0.000125 s⁻¹ and an on-rate constant (kon) of 451000 M⁻¹ s⁻¹.
As to TH69 E345R (antibody), in test [3], the EC50, CDC assay on CEM cells came out at 0.21 nM and the Maximum killing, CDC assay on CEM cells stood at 87.1%.
